Experimental data reported in patent US6632627B2, “Glutamine: fructose-6-phosphate amidotransferase, its production and use” (Takeda Chemical Industries, Ltd., priority 1997, dated 2003).

Test: Detection of GFAT activity of the proteins (HPLC detection of PITC-bound glucosamine-6-phosphate)
Type: biochemical
Conditions: 1 μl recombinant protein in 100 μl reaction mixture; 6 mM glutamine, 10 mM fructose-6-phosphate; pH 7.5; room temperature, 5 hours
Method: GFAT activity of the proteins: TGC028-3 and TGC028-4 was measured in the following manner. In a solution (0.1 M K2HP04, 50 mM KCl, 50 mM HEPES, 1 mM EDTA, 5 mM DTT, pH 7.5) were added glutamine and fructose-6-phosphate to final concentrations of 6 mM and 10 mM, respectively. Then, in 100 μl of this reaction mixture was added 1 μl of TGC028-3 or TGC028-4 protein, and the reaction mixture was incubated at room temperature for 5 hours. Thereafter, the reaction mixture was subjected to centrifugal filtration using a Ultrafree C3GC (cut-off molecular weight: 10,000; Millipore) and the filtrate obtained was mixed with an equal volume of a solution consisted of methanol, water, and triethylamine at the ratio of 2:2:1. After the mixture was dried in vacuo, the residue was dissolved in 20 μl of a mixed solution of methanol, water, and triethylamine-phenyl isothiocyanate (PITC) at the ratio of 7:1:1:1 and the reaction was carried out at room temperature for 20 minutes. […] Elution was carried out using a mobile phase comprising 232 mM sodium acetate, 0.1% triethylamine and 5% acetonitrile (pH 6.0) at a flow rate of 1 ml/minute and PITC-bound glucosamine-6-phosphate was detected at UV 254 nm.

| Molecule | GFAT activity: formation of glucosamine-6-phosphate (peak of PITC-bound glucosamine-6-phosphate by HPLC, UV 254 nm) |
| --- | --- |
| TGC028-3: human-derived protein having the amino acid sequence of SEQ ID NO:2 (615 residues), novel GFAT protein expressed in E. coli (protein) MCGIFAYMNYRVPRTRKEIFETLIKGLQRLEYRGYDSAGVAIDGNNHEVKERHIQLVKKRGKVKALDEELYKQDSMDLKVEFETHFGIAHTRWATHGVPSAVNSHPQRSDKGNEFVVIHNGIITNYKDLRKFLESKGYEFESETDTETIAKLIKYVFDNRETEDITFSTLVERVIQQLEGAFALVFKSVHYPGEAVATRRGSPLLIGVRSKYKLSTEQIPILYRTCTLENVKNICKTRMKRLDSSACLHAVGDKAVEFFFASDASAIIEHTNRVIFLEDDDIAAVADGKLSIHRVKRSASDDPSRAIQTLQMELQQIMKGNFSAFMQKEIFEQPESVFNTMRGRVNFETNTVLLGGLKDHLKEIRRCRRLIVIGCGTSYHAAVATRQVLEELTELPVMVELASDFLDRNTPVFRDDVCFFISQSGETADTLLALRYCKDRGALTVGVTNTVGSSISRETDCGVHINAGPEIGVASTKAYTSQFISLVMFGLMMSEDRISLQNRRQEIIRGLRSLPELIKEVLSLEEKIHDLALELYTQRSLLVMGRGYNYATCLEGALKIKEITYMHSEGILAGELKHGPLALIDKQMPVIMVIMKDPCFAKCQNALQQVTARQV | a peak was confirmed at the position corresponding to PITC-bound glucosamine-6-phosphate |
| TGC028-4: human-derived protein having the amino acid sequence of SEQ ID NO:3 (682 residues), constructed from TGC028-3 and a GFAT-like DNA fragment (protein) MCGIFAYMNYRVPRTRKEIFETLIKGLQRLEYRGYDSAGVAIDGNNHEVKERHIQLVKKRGKVKALDEELYKQDSMDLKVEFETHFGIAHTRWATHGVPSAVNSHPQRSDKGNEFVVIHNGIITNYKDLRKFLESKGYEFESETDTETIAKLIKYVFDNRETEDITFSTLVERVIQQLEGAFALVFKSVHYPGEAVATRRGSPLLIGVRSKYKLSTEQIPILYRTCTLENVKNICKTRMKRLDSSACLHAVGDKAVEFFFASDASAIIEHTNRVIFLEDDDIAAVADGKLSIHRVKRSASDDPSRAIQTLQMELQQIMKGNFSAFMQKEIFEQPESVFNTMRGRVNFETNTVLLGGLKDHLKEIRRCRRLIVIGCGTSYHAAVATRQVLEELTELPVMVELASDFLDRNTPVFRDDVCFFISQSGETADTLLALRYCKDRGALTVGVTNTVGSSISRETDCGVHINAGPEIGVASTKAYTSQFISLVMFGLMMSEDRISLQNRRQEIIRGLRSLPELIKEVLSLEEKIHDLALELYTQRSLLVMGRGYNYATCLEGALKIKEITYMHSEGILAGELKHGPLALIDKQMPVIMVIMKDPCFAKCQNALQQVTARQGRPIILCSKDDTESSKFAYKTIELPHTVDCLQGILSVIPLQLLSFHLAVLRGYDVDFPRNLAKSVTVE | a peak was confirmed at the position corresponding to PITC-bound glucosamine-6-phosphate |
